T1: active catalytic domain of MMP 1 (UniProt P03956 100-269)
T1 construct: domain: catalytic domain
T1 sequence (looked up): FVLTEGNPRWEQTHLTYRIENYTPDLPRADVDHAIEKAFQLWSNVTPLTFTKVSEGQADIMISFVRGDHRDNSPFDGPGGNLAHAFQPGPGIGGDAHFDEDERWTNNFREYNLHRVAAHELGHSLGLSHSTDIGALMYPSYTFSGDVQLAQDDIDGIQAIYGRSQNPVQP

T2: active catalytic domain of MMP 7 (UniProt P09237 95-267)
T2 construct: domain: catalytic domain
T2 sequence (looked up): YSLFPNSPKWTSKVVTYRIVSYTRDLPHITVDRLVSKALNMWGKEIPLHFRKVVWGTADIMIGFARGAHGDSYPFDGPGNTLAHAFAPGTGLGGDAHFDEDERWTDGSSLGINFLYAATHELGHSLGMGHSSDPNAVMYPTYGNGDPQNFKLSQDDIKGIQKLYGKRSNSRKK

B1: EGFR-4.21 (VHH)
VHH: EVQLVESGGGLVQAGGSLRLSCAVSGRTFSSMGWFRQAPGKEREFVATINLSGDRTDYADSVKGRFTISRDNPKNTVYLQMDSLEPEDSAVYYCAGTSLYPSNLRYYTLPGTYADWGQGTQVTVSS
B2: EGFR-B11 (VHH)
VHH: QVQLQDSGGGLVQAGGSLRLSCAASRFSSAQYAIGWFRQAPGKEREGVSYITFSGGPTGYADSVKGRFTVSRDNAKNTVYLQMNSLKPEDTAVYYCAARPYTRPGSMWVSSLYDNWGQGTQVTVSS
B3: EGFR-F11 (VHH)
VHH: QVQLQESGGRLVQAGGSLRLSCAASEHTFRGYAIGWFRQAPGKEREFVSSITYDGTLTNYADSVTGRFTISRDNAKNTVYLQMNSLKPEDTAVYVCAAGYSYRYTTLNQYDSWGQGTQVTVSS
B4: VHH#3E-His tag (VHH)
VHH: QVQLQESGGGLVQPGGSLRLSCAASGRTFSDHSGYTYTIGWFRQAPKEREFVARIYWSSGNTYYADSVKGRFAISRDIAKNTVDLTMNNLEPEDTAVYYCAARDGIPTSRSVESYNYWGQGTQVTVSS
notes: also called TNF3E; VHH TNF3E
B5: EGFR-1.38 (VHH)
VHH: QVQLQDSGGGLVQAGDSLRLSCAASGRSFGGYAMGWFRQAPGKEREFVAAISWSGGSTYYADSLKGRFTISRDNAKNTVYLQMNSLKPEDTALYYCAAGLRPSPNYNHERSYDYWGQGTQVTVSS
B6: EGFR-IIIa5 (VHH)
VHH: EVQLVESGGGLVQAGGSLRLSCTASGRTFSSYAMGWFRQTPGKEREFVAAITSSGGSTYYADSVKGRFTISRDNAKSTMYLQMDSLMLDDTSVYYCAADSSRPQYSDSALRRILSLSNSYPYWGQGTQVTVSS
B7: MMP-12 P1-1 (VHH)
VHH: QVQLQESGGGLVQPGGSLRLSCVASGFTFSDYPMAWVRQAPGKGLEWISVINSGGVNTSYAASVKGRFTISRDNAKNTLFLQMNSLKPEDTAVYYCAKYSLKNEQYWRGQGTQVTVSS
B8: MMP-12 P1-26 (VHH)
VHH: QVQLQESGGGLVRAGGSLRLSCVASGRTLSKYRMGWFRQFPGKERELVAEIEWKSSSTWYRDSVKGRFTISRDNAKNTVYLRMNSLKPEDTAVYYCAAATLGEPLVKYTYWGQGTQVTVSS
B9: MMP-12 P1-41 (VHH)
VHH: QVQLQDSGGGLVRTGDSLRLSCVVFGGTISTYAMGWFRRAPGKEREFVAAIDASGGFTEYADSVRGRFRIARDNPLSAVYLQMNSLKPEDTAFYYCAADKDRDTVVRFTTTPNEYDYWGQGTQVTVSS
B10: MMP-12 P1-44 (VHH)
VHH: QVQLQESGGGLVQPGGSLRLSCAASGFTFNNHWLYWVRQAQGKGLEWVSAINPGGSTVYLDSVKGRFTISRGNTKNTLYLQMNSLKSEDTAVYYCTKAMAWATDWDEYDLWGQGTQVTVSS
B11: MMP-12 P5-29 (VHH)
VHH: QVQLQESGGGLVQAGGSLRLSCAASGRTFTVYTTGWFRQAPGKEREFVAAIDWSGSSTYYTDSVKGRFTISRDNTKNTVYLQMNSLKPEDTAVYYCAARDAIVGVTDTSGYRYWGQGTQVTVSS
notes: also called clone P5-29

Tests used:
[1] = molecular target: T3, human EGFR on cells (Her-14 mouse fibroblasts expressing human EGFR; A431 cells) (human, UniProt P00533 25-1210); assay: phage ELISA on Her-14 cells (mouse fibroblasts expressing human EGFR) against parental 3T3 cells, about 10^9 phage particles, anti-M13 gpVIII-HRP, OD 405nm
T3 construct: whole, on cells; also called EGF receptor

human TNF-alpha [2] = molecular target: T4, human TNF-alpha (human, UniProt P01375 77-233); assay: ELISA: biotinylated TNFα captured on neutravidin, detection R42; sample treated with pepsin for 60 min at pH 3
T4 construct: also called TNFα; biotinylated TNF-alpha
T4 sequence (P01375 77-233 limits assumed): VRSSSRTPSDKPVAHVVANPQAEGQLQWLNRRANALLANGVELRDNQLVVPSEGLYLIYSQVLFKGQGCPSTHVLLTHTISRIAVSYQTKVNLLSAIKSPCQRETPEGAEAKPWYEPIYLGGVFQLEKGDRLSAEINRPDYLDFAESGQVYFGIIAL

human TNF-alpha [3] = molecular target: T4, human TNF-alpha; assay: ELISA: biotinylated TNFα captured on neutravidin, detection R42; sample treated with pepsin for 60 min at pH 4
human TNF-alpha [4] = molecular target: T4, human TNF-alpha; assay: ELISA: biotinylated TNFα captured on neutravidin, detection R42; sample treated with pepsin for 60 min at pH 2
human TNF-alpha [5] = molecular target: T4, human TNF-alpha; assay: ELISA: biotinylated TNFα captured on neutravidin, detection R42
[6] = molecular target: T5, human MMP-12 catalytic domain (human, UniProt P39900 106-263); assay: dot blot: periplasmic extract on 50 ng human MMP-12 catalytic domain on PVDF membrane, anti-c-myc detection
T5 construct: domain: catalytic domain; also called recombinant human catalytic domain of MMP12; human macrophage elastase
T5 sequence (P39900 106-263 limits assumed): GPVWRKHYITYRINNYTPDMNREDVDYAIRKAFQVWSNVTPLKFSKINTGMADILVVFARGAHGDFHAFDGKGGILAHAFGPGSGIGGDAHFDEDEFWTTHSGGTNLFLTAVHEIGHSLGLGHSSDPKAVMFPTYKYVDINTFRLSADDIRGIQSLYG

[7] = molecular target: T6, active catalytic domain of MMP 3 (UniProt P08254 100-272); assay: dot blot: periplasmic extract on 50 ng catalytic domain immobilized on Hybond C-extra, anti-c-myc detection
T6 construct: domain: catalytic domain
T6 sequence (P08254 100-272 limits assumed): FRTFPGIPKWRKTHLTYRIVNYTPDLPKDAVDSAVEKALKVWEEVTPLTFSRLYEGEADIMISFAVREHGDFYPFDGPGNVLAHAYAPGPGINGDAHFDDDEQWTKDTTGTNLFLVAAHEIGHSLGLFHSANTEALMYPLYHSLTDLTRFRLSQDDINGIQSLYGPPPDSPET

[8] = molecular target: T1, active catalytic domain of MMP 1; assay: as above
[9] = molecular target: active catalytic domain of MMP 13 (UniProt P45452 104-274); assay: as above
[10] = molecular target: T2, active catalytic domain of MMP 7; assay: as above
[11] = molecular target: T7, active catalytic domain of MMP 2 (UniProt P08253 110-450); assay: as above
T7 construct: domain: catalytic domain
T7 sequence (P08253 110-450 limits assumed): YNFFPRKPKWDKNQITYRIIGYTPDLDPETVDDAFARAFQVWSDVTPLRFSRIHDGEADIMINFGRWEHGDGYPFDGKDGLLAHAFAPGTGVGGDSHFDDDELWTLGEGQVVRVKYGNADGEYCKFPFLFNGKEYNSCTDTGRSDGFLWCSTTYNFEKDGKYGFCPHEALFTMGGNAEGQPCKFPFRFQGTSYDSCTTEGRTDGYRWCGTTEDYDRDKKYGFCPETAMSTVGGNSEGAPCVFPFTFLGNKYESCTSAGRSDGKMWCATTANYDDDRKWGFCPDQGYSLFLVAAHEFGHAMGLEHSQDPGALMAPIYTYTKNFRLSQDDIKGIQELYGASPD

[12] = molecular target: T8, active catalytic domain of MMP 9 (UniProt P14780 107-444); assay: as above
T8 construct: domain: catalytic domain
T8 sequence (P14780 107-444 limits assumed): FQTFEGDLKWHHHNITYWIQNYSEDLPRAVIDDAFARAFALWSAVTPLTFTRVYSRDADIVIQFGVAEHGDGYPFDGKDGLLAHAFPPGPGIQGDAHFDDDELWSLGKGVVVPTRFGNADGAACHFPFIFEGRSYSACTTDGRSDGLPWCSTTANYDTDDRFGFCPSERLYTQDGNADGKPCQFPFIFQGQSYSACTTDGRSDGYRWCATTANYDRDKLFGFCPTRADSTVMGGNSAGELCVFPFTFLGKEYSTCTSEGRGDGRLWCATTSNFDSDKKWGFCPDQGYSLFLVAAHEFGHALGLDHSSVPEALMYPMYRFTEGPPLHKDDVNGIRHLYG

[13] = molecular target: T5, human MMP-12 catalytic domain; assay: binding implied by inhibition in the colorimetric MMP-12 assay; selected on active MMP-12 on nitrocellulose

Binder	binding result [1]	binding result [6]	binding result [7]	binding result [8]	binding result [9]	binding result [10]	binding result [11]	binding result [12]	further results
B1	binds	–	–	–	–	–	–	–	–
B2	binds	–	–	–	–	–	–	–	–
B3	binds	–	–	–	–	–	–	–	–
B4	–	–	–	–	–	–	–	–	EC50 (read off the curve) (human TNF-alpha [2]): ~0.01 µg/mL; EC50 (read off the curve) (human TNF-alpha [3]): ~0.009 µg/mL; EC50 (read off the curve) (human TNF-alpha [4]): ~0.03 µg/mL; EC50 (read off the curve) (human TNF-alpha [5]): ~0.02 µg/mL
B5	binds	–	–	–	–	–	–	–	–
B6	binds	–	–	–	–	–	–	–	–
B7	–	binds	no binding	no binding	no binding	no binding	no binding	no binding	–
B8	–	binds	no binding	no binding	no binding	no binding	no binding	no binding	–
B9	–	binds	no binding	no binding	no binding	no binding	no binding	no binding	–
B10	–	binds	no binding	no binding	no binding	no binding	no binding	no binding	–
B11	–	–	–	–	–	–	–	–	binding result [13]: binds

— US20160280799A1 (Ablynx, published 2016)
